According to US6258932, “Peptides that block viral infectivity and methods of use thereof” (Tripep AB, dated 2001):
Ends that are not written are not given here.

Assays:
[1] = biological target: HIV-1 major capsid protein (p24) (HIV-1) (UniProt P04591)
[2] = biological target: capsid protein of HIV-2 (HIV-2)
[3] = biological target: capsid protein of SIV (SIV)
[4] = biological target: HIV-1 major capsid protein (p24) (HIV-1) (UniProt P04591); remark: listed apart in the source
[5] = biological target: HIV-1 major capsid protein (p24) (HIV-1) (UniProt P04591); remark: listed apart in the source
[6] = biological target: HIV-1 major capsid protein (p24) (HIV-1) (UniProt P04591); remark: listed apart in the source
[7] = biological target: HIV-1 major capsid protein (p24) (HIV-1) (UniProt P04591); remark: listed apart in the source
[8] = biological target: HIV-1 major capsid protein (p24) (HIV-1) (UniProt P04591); assay: equilibrium dialysis of 10 µM recombinant protein against 27.5 µM 14C-GPG-NH2, scintillation counting; ratio to the dialysis buffer
[9] = biological target: T1, HIV-1 major capsid protein (p24) (HIV-1, UniProt P04591); assay: cell-based or functional assay
[10] = biological target: T1, HIV-1 major capsid protein (p24); assay: cell-based or functional assay; remark: listed apart in the source

Gly-Pro-Gly-NH2 (peptide)
Day 10 RT, HIV-1 (OD of reverse transcriptase activity in the supernatant of infected H9 cells); HIV-1 syncytia [1]: 0.074 OD
Day 10 RT, HIV-2 (OD of reverse transcriptase activity in the supernatant of infected H9 cells) [2]: 0.145 OD
Day 10 RT, SIV (OD of reverse transcriptase activity in the supernatant of infected H9 cells) [3]: 0.103 OD
p24 antigen in the supernatant of HIV-1 infected H9 cells, day 7, reduction (%) [4]: 100%
p24 (pg/ml) in the supernatant of HIV-1 infected HUT78 cells, day 7, reduction (%) [5]: 97%
HIV-1 p24 (pg/ml) in the supernatant of PBMC infected with AZT- or Ritonavir-resistant HIV-1 isolates, 14 days post infection, 100 µM peptide [6]: < 500 pg/mL
p24 pg/ml in the supernatant of MT-2 cells infected with HIV-1 Bru wild type or the V3 loop GPG-deleted mutants mp8 and mp10, reduction % [7]: 93%
times buffer [8]: 7.55 times buffer

Gly-Lys-Gly-NH2 (peptide)
Day 10 RT, HIV-2 (OD of reverse transcriptase activity in the supernatant of infected H9 cells) [2]: 0.147 OD
Day 10 RT, SIV (OD of reverse transcriptase activity in the supernatant of infected H9 cells) [3]: 0.099 OD

Cys-Gln-Gly-NH2 (peptide)
Day 10 RT, HIV-2 (OD of reverse transcriptase activity in the supernatant of infected H9 cells) [2]: 0.296 OD
Day 10 RT, SIV (OD of reverse transcriptase activity in the supernatant of infected H9 cells) [3]: 0.11 OD

Leu-Lys-Ala-NH2 [LKA-NH2]
Day 10 RT, HIV-1 (OD of reverse transcriptase activity in the supernatant of infected H9 cells); HIV-1 syncytia [9]: 2.99 OD

His-Lys-Ala-NH2 [HKA-NH2]
Day 10 RT, HIV-1 (OD of reverse transcriptase activity in the supernatant of infected H9 cells); HIV-1 syncytia [9]: 2.79 OD

Gly-His-Lys-NH2 [GHK-NH2]
Day 10 RT, HIV-1 (OD of reverse transcriptase activity in the supernatant of infected H9 cells); HIV-1 syncytia [9]: 3.01 OD

Ala-Cys-Gln-NH2 [ACQ-NH2]
Day 10 RT, HIV-1 (OD of reverse transcriptase activity in the supernatant of infected H9 cells); HIV-1 syncytia [9]: 2.83 OD

Gly-Pro-Gln-NH2 [GPQ-NH2]
Day 10 RT, HIV-1 (OD of reverse transcriptase activity in the supernatant of infected H9 cells); HIV-1 syncytia [9]: 2.85 OD

Lys-Ala-Leu-NH2 [KAL-NH2]
Day 10 RT, HIV-1 (OD of reverse transcriptase activity in the supernatant of infected H9 cells); HIV-1 syncytia [9]: 2.79 OD

Ser-Leu-Gly-NH2 [Ser-Leu-Gly-NH2]
p24 (pg/ml) in the supernatant of HIV-1 infected HUT78 cells, day 7, 100 µM peptide, reduction (%) [10]: 99%

Val-Gly-Gly-NH2 [Val-Gly-Gly-NH2]
p24 (pg/ml) in the supernatant of HIV-1 infected HUT78 cells, day 7, 100 µM peptide, reduction (%) [10]: 50%

Ala-Arg-Val-NH2 [ARV-NH2]
Day 10 RT, HIV-1 (OD of reverse transcriptase activity in the supernatant of infected H9 cells); HIV-1 syncytia [9]: 2.83 OD

Ala-Leu-Gly-NH2 [Ala-Leu-Gly-NH2]
p24 (pg/ml) in the supernatant of HIV-1 infected HUT78 cells, day 7, 100 µM peptide, reduction (%) [10]: 100%

Ser-Pro-Thr-NH2 [Ser-Pro-Thr-NH2]
p24 (pg/ml) in the supernatant of HIV-1 infected HUT78 cells, day 7, 100 µM peptide, reduction (%) [10]: 25%

Arg-Gln-Gly-NH2 [Arg-Gln-Gly-NH2]
p24 (pg/ml) in the supernatant of HIV-1 infected HUT78 cells, day 7, 100 µM peptide, reduction (%) [10]: 99%

Gly-Ala-Thr-NH2 [GAT-NH2]
Day 10 RT, HIV-1 (OD of reverse transcriptase activity in the supernatant of infected H9 cells); HIV-1 syncytia [9]: 2.8 OD

Lys-Gln-Gly-NH2 [Lys-Gln-Gly-NH2]
p24 (pg/ml) in the supernatant of HIV-1 infected HUT78 cells, day 7, 100 µM peptide, reduction (%) [10]: 99%

Gly-Val-Gly-NH2 [Gly-Val-Gly-NH2]
p24 (pg/ml) in the supernatant of HIV-1 infected HUT78 cells, day 7, 100 µM peptide, reduction (%) [10]: 25%

Ile-Leu-Lys-NH2 [ILK-NH2]
Day 10 RT, HIV-1 (OD of reverse transcriptase activity in the supernatant of infected H9 cells); HIV-1 syncytia [9]: 2.95 OD

Lys-Ala-Arg-NH2 [KAR-NH2]
Day 10 RT, HIV-1 (OD of reverse transcriptase activity in the supernatant of infected H9 cells); HIV-1 syncytia [9]: 2.93 OD

Ala-Ser-Gly-NH2 [Ala-Ser-Gly-NH2]
p24 (pg/ml) in the supernatant of HIV-1 infected HUT78 cells, day 7, 100 µM peptide, reduction (%) [10]: 25%
